Article PMC7203109

How the values were obtained:
[1] = system: FLAG-ATRX helicase domain (F6); assay: pull-down RT-qPCR; details: 25 pmol protein; binds, less than GST-RBR; Pull-down: 2 mM MgCl2, 100 U/ml RNase inhibitor, 0.1 mg/ml yeast tRNA, 0.05% BSA, 0.2% NP-40, 4 °C overnight, washes 150 and 15 mM NaCl; EMSA: 50 mM Tris pH …
[2] = system: FLAG-ATRXΔRBR-HA (Homo sapiens); assay: pull-down RT-qPCR; details: 2 ug protein, yeast tRNA; Pull-down: 2 mM MgCl2, 100 U/ml RNase inhibitor, 0.1 mg/ml yeast tRNA, 0.05% BSA, 0.2% NP-40, 4 °C overnight, washes 150 and 15 mM NaCl; EMSA: 50 mM Tris pH …
[3] = system: FLAG-ATRX-HA (full-length hATRX) (Homo sapiens); assay: pull-down RT-qPCR; details: 2 ug protein, Pull-down: 2 mM MgCl2, 100 U/ml RNase inhibitor, 0.1 mg/ml yeast tRNA, 0.05% BSA, 0.2% NP-40, 4 °C overnight, washes 150 and 15 mM NaCl, EMSA: 50 mM Tris pH …
[4] = system: GST-RBR (ATRX RNA binding region) (Homo sapiens); assay: pull-down RT-qPCR; details: Pull-down: 2 mM MgCl2, 100 U/ml RNase inhibitor, 0.1 mg/ml yeast tRNA, 0.05% BSA, 0.2% NP-40, 4 °C overnight, washes 150 and 15 mM NaCl, EMSA: 50 mM Tris pH …
[5] = system: GST-RBR (ATRX RNA binding region) (Homo sapiens); assay: competition pull-down RT-qPCR; details: Pull-down: 2 mM MgCl2, 100 U/ml RNase inhibitor, 0.1 mg/ml yeast tRNA, 0.05% BSA, 0.2% NP-40, 4 °C overnight
[6] = system: FLAG-ATRXΔRBR-HA (Homo sapiens); assay: pull-down qPCR; details: 2 ug protein; Pull-down: 2 mM MgCl2, 100 U/ml RNase inhibitor, 0.1 mg/ml yeast tRNA, 0.05% BSA, 0.2% NP-40, 4 °C overnight, washes 150 and 15 mM NaCl; EMSA: 50 mM Tris pH …
[7] = system: FLAG-ATRX-HA (full-length hATRX) (Homo sapiens); assay: pull-down qPCR; details: 2 ug protein; Pull-down: 2 mM MgCl2, 100 U/ml RNase inhibitor, 0.1 mg/ml yeast tRNA, 0.05% BSA, 0.2% NP-40, 4 °C overnight, washes 150 and 15 mM NaCl; EMSA: 50 mM Tris pH …
[8] = system: GST-RBR (ATRX RNA binding region) (Homo sapiens); assay: pull-down qPCR; details: 2 ug protein; Pull-down: 2 mM MgCl2, 100 U/ml RNase inhibitor, 0.1 mg/ml yeast tRNA, 0.05% BSA, 0.2% NP-40, 4 °C overnight, washes 150 and 15 mM NaCl; EMSA: 50 mM Tris pH …
[9] = system: FLAG-ATRX-HA (full-length hATRX) (Homo sapiens); assay: EMSA; details: 5 mM Mg2+, yeast tRNA competitor; citation to ref 11 stands next to the value; Pull-down: 2 mM MgCl2, 100 U/ml RNase inhibitor, 0.1 mg/ml yeast tRNA, 0.05% BSA, 0.2% NP-40, 4 °C overnight, washes 150 and 15 mM NaCl; EMSA: 50 mM Tris pH …

Question: Xist Repeat A RNA, 435 nt was tested. Which binding signal [1] did it give?
Answer: The binding signal was 0.741 % input.

Question: And the binding signal [2]?
Answer: Its binding signal is 3.43 % input.

Question: And the binding signal ([3]; yeast tRNA)?
Answer: The binding signal was 8 % input.

Question: What about the binding signal ([4]; 25 pmol protein) of the same substance?
Answer: Its binding signal is 1.8 % input.

Question: And the binding signal ([4]; 0.5 ug protein)?
Answer: The binding signal was 0.342 % input.

Question: And the binding signal ([4]; 1 ug protein)?
Answer: Its binding signal is 1.99 % input.

Question: And the binding signal ([4]; 2 ug protein, yeast tRNA)?
Answer: The binding signal was 3.08 % input.

Question: What about the binding signal ([4]; 2 ug protein) of the same substance?
Answer: The binding signal was 2.92 % input.

Question: And the binding signal ([4]; 3 ug protein)?
Answer: The binding signal was 9.29 % input.

Question: And the binding signal ([5]; mixed with 5 ug MBP RNA, washes 150 and 15 mM …, EMSA: 50 mM Tris pH 8.0)?
Answer: The binding signal was 3.04 % input.

Question: With MBP RNA, 300 nt as the substance, how does the binding signal [3] read?
Answer: The binding signal was 1.28 % input.

Question: What about the binding signal ([4]; 0.5 ug protein) of the same substance?
Answer: Its binding signal is 0.142 % input.

Question: What about the binding signal ([4]; 1 ug protein) of the same substance?
Answer: The binding signal was 0.189 % input.

Question: What about the binding signal ([4]; 2 ug protein, yeast tRNA) of the same substance?
Answer: Its binding signal is 0.974 % input.

Question: And the binding signal ([4]; 2 ug protein)?
Answer: The binding signal was 0.183 % input.

Question: And the binding signal ([4]; 3 ug protein)?
Answer: Its binding signal is 0.22 % input.

Question: What about the binding signal ([5]; mixed with 5 ug Repeat A RNA, washes 150 and 15 mM NaCl, EMSA: 50 mM Tris pH …) of the same substance?
Answer: The binding signal was 0.0666 % input.

Question: With Xist Repeat A DNA, 435 bp as the substance, how does the binding signal [6] read?
Answer: The binding signal was 0.23 % input.

Question: What about the binding signal [7] of the same substance?
Answer: Its binding signal is 0.478 % input.

Question: And the binding signal [8]?
Answer: Its binding signal is 0.002 % input.

Question: Which Kd [9] does the source give for Xist Repeat A RNA, 192-nt fragment here?
Answer: The Kd was 0.0179 µM.

Question: With MBP DNA, 300 bp as the substance, how does the binding signal [6] read?
Answer: Its binding signal is 0.185 % input.

Question: And the binding signal [7]?
Answer: The binding signal was 0.197 % input.

Question: And the binding signal [8]?
Answer: Its binding signal is 0.000184 % input.
